Results published in US20160317644A1.
Where two headings read alike, the source gives them in different places.

B1: Dengue virus type 2 (DEN2; 16681) nonstructural protein 1 (NS1), recombinant, full-length, glycosylated, P29990 776-1127 (protein)
chain: DSGCVVSWKNKELKCGSGIFITDNVHTWTEQYKFQPESPSKLASAIQKAHEEGICGIRSVTRLENLMWKQITPELNHILSENEVKLTIMTGDIKGIMQAGKRSLRPQPTELKYSWKTWGKAKMLSTESHNQTFLIDGPETAECPNTNRAWNSLEVEDYGFGVFTTNIWLKLKEKQDVFCDSKLMSAAIKDNRAVHADMGYWIESALNDTWKIEKASFIEVKNCHWPKSHTLWSNGVLESEMIIPKNLAGPVSQHNYRPGYHTQITGPWHLGKLEMDFDFCDGTTVVVTEDCGNRGPSLRTTTASGKLITEWCCRSCTLPPLRYRGEDGCWYGMEIRPLKEKEENLVNSLVTA

What was measured:
[1] = target: transmembrane proteins of the replication complex; test: cell-based or functional assay
[2] = target: transmembrane proteins of the replication complex; test: cell-based or functional assay; remark: listed apart in the source

| Molecule | Plaque size [1] | Titer (PFU/mL) [1] | Plaque size [2] | Titer (PFU/mL) [2] |
| --- | --- | --- | --- | --- |
| DEN2 NS1 F160A (from UniProt P29990 776-1127) | 1 mm | 6000 PFU/mL | – | – |
| B1 | – | – | 3 mm | 4.8e+06 PFU/mL |
